# From patent publication US12594349B2, “Compositions and methods for the targeting of PCSK9” (Scribe Therapeutics Inc., priority 2022, dated 2026)
# Where two headings read alike, the source gives them in different places.
# Assays:
# human PCSK9 locus = assay: Secreted PCSK9 by ELISA in Huh7 cells transfected with mRNA and gRNA; format: cell-based; conditions: Huh7 cells, LTRP5-ADD-ZIM3 mRNA, 50 ng mRNA:25 ng gRNA, day 6, relative to non-targeting gRNA control
# Description: To assess PCSK9 secretion, seeded Huh7 cells were transfected with mRNA encoding a catalytically-active CasX 676, dXR1, or LTRP5-ADD-ZIM3 and a gRNA with scaffold 316 and spacer targeting either the B2M or PCSK9 locus. Media supernatant was harvested at 6, 18, 36, and 87 days post-transfection to assess level of PCSK9 secretion by ELISA. Levels of PCSK9 secretion were normalized to total cell count. As an additional control, PCSK9 secretion was also measured in the media supernatant harvested from wells containing untreated, naïve cells.
# The following three human hepatocyte cancer cell lines were used in this experiment: HepG2 cells, Hep3B cells, and Huh7 cells. ˜15,000 cells of each cell line were seeded per well; the next day, seeded cells were transfected with mRNA encoding a catalytically-active CasX 676, dXR1, or LTRP5-ADD-ZIM3 and a gRNA with scaffold 316 and spacer targeting either the B2M or PCSK9 locus (see Table 23 for specific spacers and sequences). Media supernatant was harvested at 4 days post-transfection to assess level of PCSK9 secretion by ELISA, and levels of PCSK9 secretion were normalized to total cell count and illustrated in FIGS. 11A-11C. Culturing of treated Huh7 cells continued, and media supernatant was harvested at 14 and 27 days post-transfection for measuring PCSK9 secretion by ELISA. As an additional experimental control, PCSK9 secretion was also measured in the media supernatant harvested from wells containing untreated, naïve cells.
# To assess PCSK9 secretion, seeded Huh7 cells were co-transfected with mRNA encoding for LTRP5-ADD-ZIM3 and a gRNA with scaffold 316 and spacer targeting the PCSK9 locus using Lipofectamine™ 3000. Two doses of total RNA input at a 2:1 mass ratio of mRNA to gRNA were used for screening: 50 ng mRNA:25 ng gRNA and 25 ng mRNA:12.5 ng gRNA. Media supernatant was harvested at 6 days post-transfection to assess level of PCSK9 secretion by ELISA (Table 74). Levels of PCSK9 secretion were normalized to total cell count. As an additional control, PCSK9 secretion was also measured in the media supernatant harvested from cells transfected with mRNA encoding for mScarlet.
# HBEGF = format: cell-based, human; conditions: for log 2(fold change) of abundance before and after selection: HEK293T, dCasX491 fusion, scaffold 174 spacer 34.28, 2 ng/mL diphtheria toxin for 48 hours
# B2M locus = format: cell-based; conditions: for B2M repression compared with LTRP5-ZIM3: HEK293T, LTRP5 constructs without ADD domain, scaffold 316 spacer 7.165, days 6/7 to 26/27; for % HLA-negative cells (mean): HEK293T cells, gRNA with B2M-targeting spacer 7.37
Molecule,log 2(fold change) of abundance before and after selection (HBEGF),B2M repression compared with LTRP5-ZIM3 (B2M locus),also measured
"TG-06-1046 (guide UCUCUUACAUGGGGGGAAAC; listed as RNA, chemistry not given here)",,,Percent reduction in PCSK9 secretion (human PCSK9 locus): 4.1%
"ZIM3: human ZIM3 KRAB domain, SEQ ID NO: 128 [reference compound]",1.7787,,
"standard ZNF10: human ZNF10 KRAB domain, SEQ ID NO: 129 [reference compound]",1.3637,,
"DOMAIN_26749: repressor domain derived from the king cobra, Ophiophagus hannah; SEQ ID NO: 135 (protein, Ophiophagus hannah) STPVTFEDVVVYFTAAEWVHLTNWQRDFYQAVMMETYELVASVAGDGVPMAEDEEGGVERPVWQYIPRGKRRRKTPQPRAD",highest log 2 (fold change),most effective,
"DOMAIN_29304: one of the top nine most effective repressor domains (protein, listed as Peromyscus maniculatus) VTYNDVHVDITQEEWALMDPSQRNLYKDVMVETYMNLTAIGYNWENLEVEEPCQNPLKHGRHERPHTGEKPYEYNQCGKAFAQP",,most effective,"Log2 (fold change) (HBEGF; fold change in abundance of each domain in the library before and after diphtheria toxin selection, dXR repression of the HBEGF gene, criteria p-value <0.01 and log2(fold change) >2): 4.0496"
"dCasX491: catalytically-dead CasX variant, SEQ ID NO: 4 (protein) QEIKRINKIRRRLVKDSNTKKAGKTGPMKTLLVRVMTPDLRERLENLRKKPENIPQPISNTSRANLNKLLTDYTEMKKAILHVYWEEFQKDPVGLMSRVAQPASKKIDQNKLKPEMDEKGNLTTAGFACSQCGQPLFVYKLEQVSEKGKAYTNYFGRCNVAEHEKLILLAQLKPEKDSDEAVTYSLGKFGQRALDFYSIHVTKESTHPVKPLAQIAGNRYASGPVGKALSDACMGTIASFLSKYQDIIIEHQKVVKGNQKRLESLRELAGKENLEYPSVTLPPQPHTKEGVDAYNEVIARVRMWVNLNLWQKLKLSRDDAKPLLRLKGFPSFPLVERQANEVDWWDMVCNVKKLINEKKEDGKVFWQNLAGYKRQEALRPYLSSEEDRKKGKKFARYQLGDLLLHLEKKHGEDWGKVYDEAWERIDKKVEGLSKHIKLEEERRSEDAQSKAALTDWLRAKASFVIEGLKEADKDEFCRCELKLQKWYGDLRGKPFAIEAENSILDISGFSKQYNCAFIWQKDGVKKLNLYLIINYFKGGKLRFKKIKPEAFEANRFYTVINKKSGEIVPMEVNFNFDDPNLIILPLAFGKRQGREFIWNDLLSLETGSLKLANGRVIEKTLYNRRTRQDEPALFVALTFERREVLDSSNIKPMNLIGVARGENIPAVIALTDPEGCPLSRFKDSLGNPTHILRIGESYKEKQRTIQAKKEVEQRRAGGYSRKYASKAKNLADDMVRNTARDLLYYAVTQDAMLIFANLSRGFGRQGKRTFMAERQYTRMEDWLTAKLAYEGLSKTYLSKTLAQYTSKTCSNCGFTITSADYDRVLEKLKKTATGWMTTINGKELKVEGQITYYNRYKRQNVVKDLSVELDRLSEESVNNDISSWTKGRSGEALSLLKKRFSHRPVQEKFVCLNCGFETHAAEQAALNIARSWLFLRSQEYKKYQTNKTTGNTDKRAFVETWQSFYRKKLKEVWKPAV",,,% HLA-negative cells (mean) (B2M locus; 50 days post-transfection): 0.49%; % HLA-negative cells (mean) (B2M locus; 73 days post-transfection): 0.83%
